Measured values: patent US20230109998A1, “MALARIA TRANSMISSION-BLOCKING VACCINES” (PATH, priority 2020, published 2023)

B1: non-tagged Pfs230D1+: N-terminal Pfs230 fragment (aa 552-731, N585Q) without C-terminal tag, SEQ ID NO: 1 (protein)
chain: DVGVDELDKIDLSYETTESGDTAVSEDSYDKYASQNTNKEYVCDFTDQLKPTESGPKVKKCEVKVNEPLIKVKIICPLKGSVEKLYDNIEYVPKKSPYVVLTKEETKLKEKLLSKLIYGLLISPTVNEKENNFKEGVIEFTLPPVVHKATVFYFICDNSKTEDDNKKGNRGIVEVYVEPYG
modifications: Pfs230D1+
B2: tagged Pfs230D1+: N-terminal Pfs230 fragment (aa 552-731, N585Q) with C-terminal six histidine tag, SEQ ID NO: 2 (protein)
chain: DVGVDELDKIDLSYETTESGDTAVSEDSYDKYASQNTNKEYVCDFTDQLKPTESGPKVKKCEVKVNEPLIKVKIICPLKGSVEKLYDNIEYVPKKSPYVVLTKEETKLKEKLLSKLIYGLLISPTVNEKENNFKEGVIEFTLPPVVHKATVFYFICDNSKTEDDNKKGNRGIVEVYVEPYGHHHHHH
modifications: C-terminal His6 tag; Pfs230D1+

How the values were obtained:
[1] = tested on: anti-Pfs230 human monoclonal antibodies; experiment: Western blotting of purified Pfs230D1+ with anti-Pfs230 human monoclonal antibodies; format: binding; conditions: Western blot, 10 μg/mL antibody, 20 ng protein per lane, non-reducing conditions
Procedure: Samples were diluted with 4×LDS (Lithium dodecyl sulfate, Invitrogen) sample buffer, heated for 5 min at 90° C. and loaded in a final volume of 20 μL/well on SDS-PAGE gels (4-12% NuPAGE Bis-Tris, Invitrogen). Gels were run at 150-200 V for 35-50 min in 1×2-(N-morpholino) ethanesulfonic acid (MES) sodium dodecyl sulfate (SDS) running buffer and stained with SimplyBlue™ SafeStain (Invitrogen).
Following SDS-PAGE, proteins were transferred onto nitrocellulose membrane and Western blot procedure using anti-Pfs230 human monoclonal antibodies (non patent related). The human monoclonal antibodies were tested for reactivity at 10 μg/mL to 20 ng of Pfs230D1+(non-tagged or tagged) loaded per lane. A secondary goat anti-human antibody was used at 1/2000 dilution followed by development with BCIP/NBT substrate.

P. falciparum NF54 line = experiment: Rat immunization, ELISA of antiserum and standard membrane feeding assay (SMFA) of purified IgG; format: in vivo, Plasmodium falciparum; conditions: SD rats i.m., 20 μg antigen with composition of Example 6 as adjuvant; 250 ug/mL total IgG with complement in SMFA
Procedure: SD rats (Charles River Laboratories Japan) were immunized intramuscularly (i.m.) in the thigh muscles of the hind limb with 50 μL of a vaccine formulation consisting of 20 μg of an antigen, tagged Pfs230D1+ or non-tagged Pfs230D1+, and 8110 μg of the composition of Example 6 as an adjuvant (which corresponded to 10 μg of Compound A); 20 μg of tagged Pfs230D1+ alone for FIG. 2 or 20 μg of tagged Pfs230D1+ and 8110 μg of the composition of Example 6 for FIG. 5; or 8110 μg of the composition of Example 6 alone as a control. Rats received two or three injections on day 0 and 21 or day 0, 21, and 42. On day 42 or 56, rats were sacrificed, and blood was collected. After collection of the whole blood, the blood allowed to clot by leaving it undisturbed at room temperature for 4 hours. The clot was removed by centrifuging at 2,000×g for 10 minutes in a refrigerated centrifuge.
For the sera on day 42 or 56, the antibody levels against corresponding proteins were determined individually by ELISA (FIG. 2a for tagged Pfs230D1+, FIG. 5a for non-tagged Pfs230D1+).
For each group, an equal amount of serum from each rat was pooled regardless of ELISA units. […]
The standardized methodology for performing the SMFA is known in the art. […] Only midguts from mosquitoes with any eggs in their ovaries at the time of dissection were analysed (FIG. 2b for tagged Pfs230D1+, FIG. 5b for non-tagged Pfs230D1+). […]

Row | Molecule | reactivity to anti-Pfs230 monoclonal antibodies [1] | reactivity to anti-Pfs230 monoclonal antibodies ([1]; listed as Non-tagged Pfs230D1+) | induction of functional antibodies (ELISA units, transmission reducing activity in SMFA) (P. falciparum NF54 line) | reactivity to anti-Pfs230 monoclonal antibodies ([1]; listed as Pfs230D1+ containing histidine-tag)
1 | B1 | reacted under non-reducing conditions | reacted to two conformational dependent anti-Pfs230 monoclonal antibodies | induced functional antibodies in rats | –
2 | B2 | reacted under non-reducing conditions | – | induced functional antibodies in rats | reacted to two conformational dependent anti-Pfs230 monoclonal antibodies
